These results are taken from EP4786496A1 (Nanjing Iaso Biotechnology Co., Ltd., dated 2026).

Assay [1] addresses T1, BAFF-R on the surface of BAFF-R-positive cells (K562-BAFF-R, NALM6, RS4, MEC1, JEKO1) (human, UniProt Q96RJ3 1-184).
T1 construct: The cell line is named under assay or readout of each row; K562-BAFF-R overexpresses BAFF-R; the others are human tumour lines that carry it natively; also called K562-BAFF-R cells; RS4-luc
T1 sequence: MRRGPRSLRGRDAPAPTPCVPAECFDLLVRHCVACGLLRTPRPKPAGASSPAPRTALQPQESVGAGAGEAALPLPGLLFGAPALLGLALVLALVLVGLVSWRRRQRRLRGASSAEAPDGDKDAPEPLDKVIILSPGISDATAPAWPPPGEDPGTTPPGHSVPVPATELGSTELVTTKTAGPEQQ
Briefly: flow cytometry, phage on K562-BAFF-R and NALM6 cells. On the technique in general: Flow cytometry measures light scatter and fluorescence of single cells or particles in a stream.

Assay [2] concerns the target T2, ACRO-CD70-his (Biotinylated Human CD27 Ligand ,His,Avitag; ACRObiosystem CDL-H82Q9) (human, UniProt P32970 39-193, limits assumed, biotinylated (Avitag)).
T2 construct: Bought unrelated antigen; not shown: His tag and Avitag
T2 sequence (looked up): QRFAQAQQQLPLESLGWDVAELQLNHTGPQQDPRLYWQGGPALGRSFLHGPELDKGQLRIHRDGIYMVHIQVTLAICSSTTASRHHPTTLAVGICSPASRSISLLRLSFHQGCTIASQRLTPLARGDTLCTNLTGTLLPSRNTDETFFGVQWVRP
Briefly: phage ELISA.

Assay [3] deals with T3, KACTUS-CD19-Fc (Recombinant biotinylated Human CD19 Protein, KACTUS CD2-HE121) (human, UniProt P15391 20-291, biotinylated (site not stated)).
T3 construct: Bought unrelated antigen; not shown: Fc
T3 sequence (looked up): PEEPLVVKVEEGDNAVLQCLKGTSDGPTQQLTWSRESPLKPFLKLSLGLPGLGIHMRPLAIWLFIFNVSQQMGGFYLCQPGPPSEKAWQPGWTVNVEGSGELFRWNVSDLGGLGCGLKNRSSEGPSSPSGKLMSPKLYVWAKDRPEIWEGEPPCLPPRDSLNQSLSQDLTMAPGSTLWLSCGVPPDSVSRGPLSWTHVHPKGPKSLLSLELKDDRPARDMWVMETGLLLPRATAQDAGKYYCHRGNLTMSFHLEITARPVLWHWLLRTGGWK
Briefly: phage ELISA. For orientation: An ELISA detects its analyte on a solid surface through an enzyme-linked reagent.

In assay [4] the target is T4, Streptavidin (Pierce, 21125) (UniProt P22629 37-163, limits assumed).
T4 construct: Control antigen of the ELISA; also called SA; control protein SA
T4 sequence (P22629 37-163 limits assumed): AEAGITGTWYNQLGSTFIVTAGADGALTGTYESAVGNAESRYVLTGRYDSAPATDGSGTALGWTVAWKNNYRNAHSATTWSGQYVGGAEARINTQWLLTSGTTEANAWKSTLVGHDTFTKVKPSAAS
Briefly: phage ELISA.

The target of assay [5] is T5, BAFFR-cyno-His (BAF-CM10R, KACTUS) (cynomolgus, UniProt Q96RJ3 7-71 (human entry), limits assumed).
T5 construct: Bought protein; also called Cyno BAFF-R; cynomolgus BAFF-R; not shown: His tag
Briefly: ELISA, antigen coated on plate, anti-human IgG HRP.

Assay [6] addresses T6, BAFFR-mouse-rFc (50353-M31H, Sino) (mouse, UniProt Q9D8D0 1-71).
T6 construct: Bought protein; also called Mouse BAFF-R; not shown: rFc
T6 sequence: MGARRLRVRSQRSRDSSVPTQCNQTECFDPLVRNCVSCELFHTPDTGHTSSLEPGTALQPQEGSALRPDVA
Briefly: ELISA, antigen coated on plate, anti-human IgG HRP.

The target in assay [7] is T7, Recombinant biotinylated Human BAFF-R Protein (KACTUS, BAFF-R-HM401) (human, UniProt Q96RJ3 7-71, limits assumed, biotinylated (site not stated)).
T7 construct: Bought protein; treated as one product; also called BAFF-R-his-Bio; BAFF-R-Bio-his; not shown: His tag
T7 sequence: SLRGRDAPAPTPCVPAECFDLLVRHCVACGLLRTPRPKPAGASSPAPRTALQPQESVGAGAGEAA
Briefly: ELISA, antigen coated on plate, anti-human IgG HRP.

Assay [8] deals with T8, His-tagged human BAFF-R antigen (BAR-H52H3, Acro) (human, UniProt Q96RJ3 7-71, limits assumed).
T8 construct: Bought protein used in BLI; not shown: His tag
T8 sequence: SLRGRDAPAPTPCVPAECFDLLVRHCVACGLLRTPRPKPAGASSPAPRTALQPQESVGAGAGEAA
Briefly: BLI (ForteBio Octet), His-tagged antigen on HIS1K sensor, antibody in solution.

B1: VAY736 positive control phage antibody clone (scFv)
scFv: QVQLQQSGPGLVKPSQTLSLTCAISGDSVSSNSAAWGWIRQSPGRGLEWLGRIYYRSKWYNSYAVSVKSRITINPDTSKNQFSLQLNSVTPEDTAVYYCARYQWVPKIGVFDSWGQGTLVTVSSGGGGSGGGGSGGGGSDIVLTQSPATLSLSPGERATLSCRASQFILPEYLSWYQQKPGQAPRLLIYGSSSRATGVPARFSGSGSGTDFTLTISSLEPEDFAVYYCQQFYSSPLTFGQGTKVEIK
notes: also called VAY736 antibody
Regarding B1, in assay [1], the binding result is listed as “binds”.

B2: Clone 1 (monoclonal phage antibody) (scFv, V domains shown)
VH: EVQLVESGAEVKKPGASVKVSCKASGYTFTSYGISWVRQAPGQGLEWMGWISAYNGNTNYAQKLQGRVTMTTDTSTSTAYMELRSLRSDDTAVYYCARNTYYYDSSGYPNDAFDIWGQGTTVTVSS
VL: DIQMTQSPSSLSASVGDRVTITCRASQKISSYLNWYQQKPGKAPKLLIYAASSLQSGVPSRFSGSGSGADFTLTISSLQPEDFATYYCQQSYSPPTTFGGGTKVDIKR
notes: also called 01
Consider B2, for which the binding result in assay [2], in assay [3] and in assay [4] was “no binding” throughout.

B3: Clone 5 monoclonal antibody with Fc comprising S228P/L235E (05VH-hFc PE) (antibody, human IgG4 S228P, V domains shown)
VH: EVQLVESGGGVVQPGRSLRLTCAASGFTFSTSGMYWIRQAPGKGLEWVSYISSSSSTIYYADSVKGRFTISRDNSKNTLYLQMNSLRAEDTAVYYCVTQSCGAGKCYPGVWGQGTTVTVSS
notes: Single-domain VH fused to a human Fc, made in CHOS cells; also called Clone 05; clone 05 monoclonal antibody
One may read the EC50 as the concentration needed to bring the measured effect to its halfway point. What is called Kd is the free concentration of one partner at which half of the binding sites on the other are occupied at equilibrium, for simple one-to-one binding. Read a high Kd as weaker binding. In general, koff refers to the first-order rate constant of dissociation. Higher therefore signals fast dissociation. The kon is a measure of how fast the partners come together. High values mean faster complex formation, low ones slower complex formation. B3: in assay [5], the EC50 was found to be 1.91 nM. Moreover, the EC50 in assay [6] came to 3.4 nM. The 50% effective concentration (EC50) in assay [7] was 0.965 nM. In addition, in assay [8], the Kd is 2.63 nM, the dissociation rate constant (koff) worked out at 0.00163 s⁻¹ and the kon stood at 622000 M⁻¹ s⁻¹.

B4: Clone 5 (monoclonal phage antibody) (VHH)
VHH: EVQLVESGGGVVQPGRSLRLTCAASGFTFSTSGMYWIRQAPGKGLEWVSYISSSSSTIYYADSVKGRFTISRDNSKNTLYLQMNSLRAEDTAVYYCVTQSCGAGKCYPGVWGQGTTVTVSS
notes: also called 05; 05VH
On to B4, for which the binding result in assay [2], in assay [3] and in assay [4] was “no binding” each time.
